Experimental data taken from paper PMC7281310, “Pharmacokinetic Analysis of Epithelial/Endothelial Cell Barriers in Microfluidic Bilayer Devices with an Air–Liquid Interface” (Micromachines, 2020).

Key:
[1] = Permeability in Transwells without cells; assay type: in vitro ADME; details: no cells; 12-well Transwell, polyester membrane, 0.4 µm pores, 1.12 cm^2; static, top to bottom chamber; 2 h; endothelial cell media; C0 = 60, 3, 1, 3 µM for 4-dextran, C-dextran, 70-dextran, insulin; fluorescence plate reader; n = 3
Procedure: (§1) Commercially-available 12-well Transwells (Corning, Corning, NY, USA), with polyester membranes, were utilized to assess static compound permeability in the absence of flow-induced shear stress. The area of each Transwell membrane was 1.12 cm^2 with 0.4 µm diameter pores and 0.5% porosity. Epithelial cells were seeded in the Transwell top apical compartment at a density of 2 × 10^6 cells/mL. Once the cell monolayer had reached confluency, the 500 µL culture media in the top compartment was replaced with a solution of endothelial cell media mixed with various fluorescently-labeled compounds at a pre-determined initial concentration. The bottom basolateral compartment was filled with 1500 µL fresh endothelial cell culture media, and the Transwell was placed in an incubator for 2 h. Then, liquid samples of 100 µL from both compartments were aliquoted into a 96-well plate. Fluorescent intensities of the collected samples were measured, using a BioTek Synergy 2 Plate Reader (BioTek, Winooski, VT, USA), and converted to molecular concentrations as reported elsewhere.
(§2) Investigation of molecular transport across Transwell membranes is useful in establishing baseline permeability characteristics with no shear stress. […] The molecular concentration at the Transwell bottom chamber CT was then measured after 2 h. […]

[2] = system: A549 epithelial cells; experiment: Permeability in Transwells with A549 cell monolayer; assay type: in vitro ADME, human; details: confluent A549 monolayer in apical chamber; 12-well Transwell, polyester membrane, 0.4 µm pores, 1.12 cm^2; static, top to bottom chamber; 2 h; endothelial cell media; C0 = 60, 3, 1, 3 µM for 4-dextran, C-dextran, 70-dextran, insulin; fluorescence plate reader; n = 3
Procedure: as §1, with “elsewhere. […]” for “elsewhere.”
as §2

[3] = system: A549 epithelial cells; experiment: Trypan blue cell viability assay, A549; assay type: cell-based, human; details: insulin at 10 µM, 1 h exposure
Procedure: (§3) In general, higher compound concentration is desired since the emitted light intensity increases with molecular concentration enhancing the signal-to-noise ratio and, thereby, improving the reliability of the measured concentration. However, some compounds could be toxic agents to cell cultures; as the signal intensity increases with increasing compound concentration, cells could be adversely affected resulting in cell death. […] Epithelial and endothelial cells were seeded and cultured in 96-well plates for 48 h. The cell cultures were exposed to the selected compounds at various concentrations for 1 h and then washed using PBS. Next, the wells were immersed in 0.2% Trypan Blue for 10 min, after which the cells were fixed using 4% paraformaldehyde and rinsed with PBS. Using a brightfield microscope, dead cells were counted using uptake of trypan blue as a marker for nonviable cells.

[4] = system: HUVEC endothelial cells; experiment: Trypan blue cell viability assay, HUVEC; assay type: cell-based, human; details: tested concentration range 10^−3–10^1 µM, 1 h exposure
Procedure: as §3

[5] = Turbidity / fibril formation after agitation in jet nebulizer (fluorescent intensity, visual pellet); assay type: physicochemical
Procedure: In order to generate an aerosol, using a jet nebulizer, a high-pressure air stream is forced through a liquid solution to form a mixture of tiny liquid droplets suspended in air. […] Visual inspection of the upper jet nebulizer platform provides an indirect evidence for insulin fibril formation. The photographs of the nebulizer platform, shown in Figure 8, were taken following 5 min of the solution agitation.
The intensity of the agitated and un-agitated dextran is approximately the same (Ia/Iu ≅ 1), indicating constant transparency with and without agitation, which is consistent with the lack of a dextran pellet on the nebulizer platform. […] The initially lower intensity of the agitated insulin with its low transparency, which is correlated with the pellet formation on the nebulizer platform, can be due to insulin fibril formation.

[6] = Permeability of agitated vs un-agitated insulin in Transwells without cells; assay type: in vitro ADME; details: agitated 5 min in jet nebulizer, 20 min diffusion time, fluorescence
Procedure: The permeability values, calculated based on concentration measurements in the Transwell bottom compartments after 20 min diffusion time, are shown in Figure 10. […] It is; therefore, critical to maintain the stability of compounds during aerosol generation process in order to obtain reliable concentration–time plots using microfluidic bilayer devices with an air–liquid interface.

[7] = system: some cell types; details: 30 min exposure; cited from earlier work
[8] = set-up: method as in PMID 21641324, PMID 18646033; details: under conditions similar to the present experiments; cited from earlier work

For “Insulin: Fluorescently tagged (FITC) insulin, 5.8 kDa, used at 3 µM as potential inhaled therapeutic compound”, the “Permeability in Transwells, Pat” value [1] was 15.8 ×10⁻⁶ cm/s, the “Permeability in Transwells, Pat” value [2] was 5 ×10⁻⁶ cm/s and the “A549 epithelial cell viability” value [3] was 88%. The “Cytotoxicity to HUVEC cells (in words)” value [4] was “did not have adverse effect”, the “Time to reach steady-state Ia/Iu” value ([5]; after 5 min agitation in a jet nebulizer) was at most 20 min and the “Pellet (solution turbidity) on nebulizer platform, visual inspection” value ([5]; following 5 min of solution agitation) was “visible”. The “Time for pellet to disappear” value ([5]; following 5 min of solution agitation, visual inspection) was “within half an hour”, the “Permeability of agitated solution compared with un-agitated solution” value [6] was “clearly lower” and the “Concentration at which some cell types start to exhibit signs of cell death” value [7] was “greater than 1 µM”. For the same substance, the “Time of fibril dissociation” value [8] was under 1 h.
